Results as given in the domain aggregation screens of Martell et al. (2025).

assay: soluble fraction after stress (log2 fold change); higher = more stays soluble; pooled small domains, quantitative proteomics; conditions: stress: pH 4
Procedure, shortened: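 How much of each domain stays soluble after acid stress, expressed as a fold change, is used to gauge aggregation propensity. Pooled custom libraries of small domains underwent pH 4 stress before high-throughput quantitative proteomics. A higher log2 value means more of the domain stayed soluble.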

Row | Sequence | soluble fraction (log2)
1 | HMSDRLRLGRRIRAARLEQNLSQAALAERLGISASYLNLLEHDRRSLTTVLLLKLAQVLGLELRDLAAG | 0.0304
2 | HMSDRLRPGDMVVVVGKKKRYPVFSAFDIDFVEAGDVGKVLTVKREEVVVGFPKKGEGTFTPSELNIAH | 0.00331
3 | HMSDTGQELHDALNMARRTLTILEEQAAGYTALTIPARLVLELEEKRKDVVRLETQIRSAATGTPG | 0.00666
4 | HMSDTLPRLLWNFQMAKRLDEMNGAEKRRYQLVLIHPQASEKERDYASSFAHQARMLGIEVAIRDS | -0.139
5 | HMSDVVFRINANGLNVSGLANGERVSVYDTTGKLVTTAVSTQDNGTLNLPLKQSGGIYIARTQSGVSFKFT | 0.108
6 | HMSDYKSYLQELVQTDKKSLSYNVVKETGPAHDKTFEVEVEVDGIIYAHGVGKSKKEAEQNAAKNAIMISA | -0.24
7 | HMSDYLGSLSHEEKMIFNHFDEDSSTIENMAKKTELKPELISQIFLNLELRGFLRQTEGGLYEKI | -1.13
8 | HMSDYYEVLGVTRQADAEEIKRAYRRKARQLHPDVAGPGHEEEFKEVTVAYEVLSDPEKRQAYDLGGQDAL | 0.0614
9 | HMSEDAVKFRAAVEVENGLAQRNLNKNQAALILGVDRSYFTYIISGKKTPSPDMAKRIGLLLGFDWRVFYA | -0.324
10 | HMSEEIKVPNFVGSTFEKAQALAQETGLEIARGEDVYSPDQEEGKITSQNPTADSVVSPGKLITVYVSKG | 0.0365
11 | HMSEIKDRLREARRNKGLSQAGLSKLLGVSQASIAAIESGRNKRPTNLVSIAKALDVSPYWLETGK | 0.0733
12 | HMSEITQTLSMIGKEVTLEIPDEKDKTKTTEVKGIVTEASFKDGTGKVKVNGEYYSIAYITSIRDT | -0.545
13 | HMSEIVEEQNTKLKQAVSKLSKRQQEVLYLKFEEGLDYEQISKIMDLKYQSVRNLVSTAIIKIKEH | 0.0707
14 | HMSEKELTDLIERIKERRLKLEMSYQDLSDATGISKSTLQRYETGYIKKVPINQIEILAKALHTTPSYLMG | 0.0791
15 | HMSEKIDINNSNELELKQLPLTNEQIKSLIEFRRLHGEIQNIYELKNIDFFNIEKVHELKAHIEIKKII | -1.05
16 | HMSELADDPVYTALEKAADKAGLQLTVRILNDLADAVLKRGKKKLTAAQAGKVIARAESELAKSRID | ≥ 0.43
17 | HMSELDASYLGQRVRYVSGFTETDPSEGLVEFRGSNWRARAEHPPLDHSGHWVIVKVESNTLWVEEKSN | 0.0761
18 | HMSENEIDELRRRFAREAMALMERKGEEVSRTRLAAELSVARARIDAVFPEESDLLEAVTAEWFA | -0.799
19 | HMSENEVQAKVKEIVDRYAGDKSALIAILQDVQDEYRYLPKEALVSIQQQMNIPLSRVYEVATFYDAFS | -0.862
20 | HMSEPIYTQLKEILTQKIVNGEFPPGARLPSEYELTELYHISRSTVRLALKELEASGMIVRRRGKGTFVSS | -0.0496
21 | HMSEPRYRQLATILAQEIRSNHSAGDQLPSEQALAKRFEVNRHTVRRAVDELVAAGMVTRHQGWGTQVV | 0.243
22 | HMSEQGVITAKFASIVGNQNIQLVMFPDSVYLKGQVSSEEEKKRAETVASSLIQDRKIVNLIEFE | -0.638
23 | HMSEQIALQFAKAKQHHTGIALKGIEALELRYKGYTGKEIAALYHTSPKSVFSWISRAKQKLRQN | ≥ 0.43
24 | HMSEQLHALIDRLDDIPDDELKKNWPGTLRDLVDVISAELHRQGIEPAQAGMLARKVAAAQAGYMG | -0.742
25 | HMSEQLKQIAERIKELRNIAGLGEEELAAKLDIPVDTYREYESGNVDIPVSFLYKISGMFNVELTAIL | -1.05

Row | Sequence | soluble fraction (log2)
26 | HMSEQLVGTVGHITVGTARTASPAEAKFLDAFEQPHYLLVEPIEPKDIFQQGDKVVLVKKQHHSWLATRYI | 0.0779
27 | HMSEQTLEDVRRLIEHLPESQKEVVKMRYYQDLSFKEIADLKGISINTALGRMHYAINNMRKMAKEYGL | -0.473
28 | HMSEQVQLQAQVEDDLIGKRLDQVVAQLFPDYSRSRLQGWIKDGSLTVDGESRRPRDKMMGGEVVRVEATL | -0.347
29 | HMSEQVTMIDVEGKTETEAKKALEDLGLKVEITYESADAAAGTVIGQDVKAGSTVSEGSRVTLTVSGQ | -0.211
30 | HMSERQTGTVKWFNNAKGFGFITMADRPDDIFVHFRAIQGDGYRSLNEGEEVEFSLVEGPKGLQAEEVTK | -1.09
31 | HMSESAGKAFDLLFYLAKAGETVSLARLSRETGMNKATALRYLNVLESKGVVERSKLGWTLGLSLFELGSK | -0.508
32 | HMSESIFTLYGDEKFEKIRYYLKERGFITLDALARFDFDELLFVPGVSELLISEAKQLFSRYDTSSLAAKE | -0.921
33 | HMSETAEFIIQVNGKVRAKLQLPTDISKEEIQKLALADENVQKYLNGEPRKIIFPPNTRLVSIV | -0.0446
34 | HMSETEEWTVEGGQAGDRIDRHVAAMLGDDVSRSQVQQWIRAGRVTVNGRAVKPSDTVEEGDRVAVDLPEP | -0.397
35 | HMSETVYQYVARQLRDMLGSGEIPVGQQLPTYRELAKRFQVSLSVIQRAMRQLKAEAVVSIAHGQGVKAVR | -0.176
36 | HMSEVPVLVAKTDIKELELIDDRKVTLINVPQKFKMPGSFNSPEEVYNTIAAVPIKEGEQITKPRVTWP | -0.443
37 | HMSEVSEILTRARFFAGVKTDAELSTLLKIPYGTLIGWKTRKNIPESRIAQMALILGIRRDTLIPA | -0.11
38 | HMSEYIFGKNVVKEAFNNPSRIEEIYVLDKNMEFVSLAKKYHIKYTVITSSEMNKMVSGNHQGVVALVK | -0.264
39 | HMSFDENEALRKALDVFWEKGYDGTSLSDLTEAMGINKPSLYATFGNKDQLFLKAIEMYENR | -1.44
40 | HMSFDTFKKVFSNLVEKSGYSDAEIARRLGVNRSTISRWKSGEQSPPLPKVKEIANFFGVSPMVFVD | 0.0603
41 | HMSFFNGNQMKILRKKLQLNQEEMGEKLGIKKSYVSQLENNRKEITEEIDQILQELEQEYQDKM | -0.0582
42 | HMSFGESLKKLSIALNSIRKLATTDAGKKDPKVADLLGQIRDTFNSYRTHLRKNYPDLYSGIKNQL | -0.311
43 | HMSFGKKLRSLRQEKKLSQVELSKKLNVTSQALSQYELGKRIPDAEMIIRIADFFDVSVDYLLDRT | -0.137
44 | HMSFGWESLENKEGVADTDLHPSGWVRIEDSRIFVVSEGDFINKGSKVTVLTVDGNRVVVRELI | -1.79
45 | HMSFNISPTKKLILELIMNGTAAVEAIAVKAGISKGMAYNHLRELRSMGYITDEGGYKITDSGRLAV | -0.399
46 | HMSFNNHYEILQVQPSADREVIEAAAKALLKKHHPDLGGRNTITSHIVQAKKVLTDTSQRADFDARLRERL | 0.165
47 | HMSFNSQENKSVLWQFLLENNFFIGLSDKKFNKVKDIFEKNIQSISIVNDSISNKNKILIQKMMEELELL | -1.46
48 | HMSFPDTYFKGNKVIGLSYNDLKKFLNNAGYSKFDEEVEEWGEKRVSIEDDMVDFYLEDDKVVSI | -0.356
49 | HMSFPFLMPNLEGLQLDQVRVILEENGLEIGQENYQPDSKFGPGTIINHQPSVDTVVQTGQKVNLQISGTD | -1.14
50 | HMSFSSLSNDILSEIQKDNNITYDELSEKLQKDRATIYRNMKKLVENGLLKRVGGRKSGHWEIIE | ≥ 0.43

Row | Sequence | soluble fraction (log2)
51 | HMSFVDFYGLFTTELQRLAELPVTADELIKNTGLHKSQLTDWLKRAEEDGVVKKLNRPVRYQVEKK | -0.989
52 | HMSGAQIQQLLESRAPQPGMNPDMIVRRKTYMNNVFNALKGALLRVANGSSPEEVKTEVDAAIQVDPDKL | -0.151
53 | HMSGEVLTAVVPETASGERLDKVLPQIFPPYSRSQLQTWLKEGRVTLDREIPAARLAVIGGETLRLEVPSL | -0.0494
54 | HMSGFFVYPNPAKSNIIHFPNKKSFYIYDTSGRLLIEGKGKDFIDVSTLDRGVYLLKTFENDIVKIII | -0.585
55 | HMSGGIVRLAVKPWGEVFVDGASRGITPPLKQLTLDAGVHRIEIRNPAGPSWTKDVDVVAGQPTTVSHRF | 0.0131
56 | HMSGITDIITDGKATSRPVVVTDGGHIRVLSPYTSFAIYTLGGMSLPTESRLEPGIYIVVVDSNAVKVAV | -0.408
57 | HMSGLGELTPRELEVLELMAQGLSNSQIAGRLFLSGAAVAKHVSSIFSKLGFEPGDENRRVRAILAFLNR | -0.751
58 | HMSGLLTTSKLAQKHKMKTEPMLEKLTAAGYLEWRDDKHSLTEQGKKAGGQFKTGRFGAYFLWPEDLV | 0.116
59 | HMSGPDGLTEREIEVLRLLASGLSNRAIGERLYISTNTAANHVRSILLKTGAANRTQAAMYAADHEML | 0.0798
60 | HMSGPFTELTPREREILSHLAEGQSNKVIARHLQISDGTVKLHVKAILRKLEVHSRVEAAVMAVEHGV | 0.0256
61 | HMSGPMVPNVVGLSEEMARALLSDYSITIKHAHDGVIPKDRVASQLPLATTHAKVGSSVVLTIS | 0.238
62 | HMSGQLTEEQVKQIVTTAVKNSSGSTLTAAEVSRIVSTAVANNLTADQVKTVVNNALAGITTDISTLKA | 0.202
63 | HMSGSFDVTLDYLNSLRNLYPAIDVEQEFRKMYAWLDSNPKNRKTERGIKRFITGWLGRAQDKAP | -0.9
64 | HMSGSLLQTRQRLQALTDLGHYKGDLAAAWGPEAIEALKRAQAALGITVDGKWGPETEDAIQVALQAQT | -0.133
65 | HMSGSPREQAESEYRKAIAAVNQGRVSEATESLRAALRLDAFQVAARQLLVKLLLEAKNQDEAIQVLR | -0.489
66 | HMSGTMYATAEVNVRSTYSSDGTIYGTLSKGTAVEITGTTDNGWVRVKYNGTTAYVYADYLSWKAP | 0.144
67 | HMSGYAIVNNQPGRTLNLRNSPSQSNNIIGQIPSGTRLQLISRGETWSEVIFQTTRGFVMSSFLRFET | -0.17
68 | HMSHGNAALTPRQRLRLARLVVDDQWSVSAAAEFFRVSYPTAAKWARRYVELGPAGMADRSS | -0.0854
69 | HMSHRVGDVVELTAVRMNDQGVFLDAGTGNTSDDILLHKHQMTSPVSVGDKVKVQLYLDAKNRITASMKL | -0.199
70 | HMSIEIIEITSNSSPKNLSEIIDIDATQIVADLMGLGIMKAIDTPLENSEIEQLLEKYNLIAEFVE | -2.51
71 | HMSILEIFGRNVQKYRKEQRLSQEKLAEYAGLHRTYIGMIERAEKNITLVNIEKIAKALNINLTKLLE | 0.0741
72 | HMSILTELDIGDKVEVVAGPFKGIQANITRIEPVRKEVTVILLDAPYQLPVTVDADYLKIIQKS | -0.0376
73 | HMSINISFEPADHLGKDVIFIRFPYDNEWIQRVRKLKGAKWSQSQRAWHVPDTEHYRTLFQLPQKI | -0.704
74 | HMSIQDLMNSKDLSGFKVEMLSNEDIVKYKSMLQSSGFSESQAEQLALQRGLPTSELIKLRTRISDVAVT | 0.17
75 | HMSIQELMNSKDLSSFKVEMLSDEDIAKYKGLLQNSGLTEAQAEQMALQRGLPSSELLKLKARLSGI | 0.0846
